# Experimental data from publication PMC4840175, “A Substrate Mimic Allows High-Throughput Assay of the FabA Protein and Consequently the Identification of a Novel Inhibitor of Pseudomonas aeruginosa FabA” (Journal of Molecular Biology, 2016).
# B1: PaFabA (3-hydroxyacyl-[ACP] dehydratase) (Pseudomonas aeruginosa PAO1) (protein)
# chain: MTKQHAFTREDLLRCSRGELFGPGNAQLPAPNMLMIDRIVHISDVGGKYGKGELVAELDINPDLWFFACHFEGDPVMPGCLGLDAMWQLVGFYLGWQGNPGRGRALGSGEVKFFGQVLPTAKKVTYNIHIKRTINRSLVLAIADGTVSVDGREIYSAEGLRVGLFTSTDSF
# Substrate: CCCCCCCC(O)CC(=O)SCCNC(C)=O
# Assay: enzyme turnover, coupled PaFabA-PaFabV fluorescence assay (estimated KM) and direct UV assay
# Type: biochemical, Pseudomonas aeruginosa
protein,measurement,value
B1,Km,400 µM
